Data reported in the supplement of paper PMC12667976.
± gives the standard error.

B1: library; numbered along this chain (parent)
chain: MATDAALRRLLRLHRTEIAVAVDSAFPLLHALADHDVVPEDKFQETLHLKEKEGCPQAFHALLSWLLTQDSTAILDFWRVLFKDYNLERYGRLQPILDSFPKDVDLSQPRKGRKPPAVPKALVPPPRLPTKRKASEEARAAAPAALTPRGTASPGSQLKAKPPKKPESSAEQQRLPLGNGIQTMSASVQRAVAMSSGDVPGARGAVEGILIQQVFESGGSKKCIQVGGEFYTPSKFEDSGSGKNKARSSSGPKPLVRAKGAQGAAPGGGEARLGQQGSVPAPLALPSDPQLHQKNEDECAVCRDGGELICCDGCPRAFHLACLSPPLREIPSGTWRCSSCLQATVQEVQPRAEEPRPQEPPVETPLPPGLRSAGEEVRGPPGEPLAGMDTTLVYKHLPAPPSAAPLPGLDSSALHPLLCVGPEGQQNLAPGARCGVCGDGTDVLRCTHCAAAFHWRCHFPAGTSRPGTGLRCRSCSGDVTPAPVEGVLAPSPARLAPGPAKDDTASHEPALHRDDLESLLSEHTFDGILQWAIQSMARPAAPFPS

Variants of: B1
Assay: AIRE transcriptional activation functional score (insulin promoter-GFP; nonsense median 0, synonymous median 1) (normalised score); higher = higher AIRE activity (more reporter activation)
Conditions: with insulin promoter-GFP reporter in HEK293
Method in brief: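 Integration of codon-optimized AIRE NNN-codon libraries (three regions) by Bxb1 recombinase was done in Flp-In T-REx HEK293 landing-pad cells containing an insulin core promoter-GFP reporter. Tile-sequencing covered the top 10% GFP cells and the unselected integrants, drawn from mCherry+, BFP− cells sorted at day 7 and grown 7 days. Functional score means the enrichment of a variant in select versus non-select, minus that of wild type. Variants with at least 10 counts per million in non-select were rescaled to nonsense median 0 and synonymous median 1, and the biological replicates were averaged.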

Variant | AIRE transcriptional activation functional score
L106I | -1.62 ± 0.095
L106F | 0.883 ± 0.41
V118H | 1.74 ± 0.26
N86Q | -0.241 ± 0.33
R139P | 0.0776 ± 0.31
L93N | 0.43 ± 0.13
C457F | 0.264 ± 0.22
F543G | 0.595 ± 0.26
A493C | 1.13 ± 0.075
A493L | 1.09 ± 0.35
H512Q | 0.273 ± 0.4
A404L | 1.26 ± 0.15
Q173E | 0.663 ± 0.18
C311R | 0.856 ± 0.25
C311G | 0.921 ± 0.24
R471Y | 1.13 ± 0.23
A343D | 1.18 ± 0.15
R473L | 1.29 ± 0.21
L341M | 0.759 ± 0.046
E207S | 0.372 ± 0.32
E207Q | 0.672 ± 0.052
W531I | 0.285 ± 0.14
G155I | 0.209 ± 0.65
G155C | 0.555 ± 0.12

Variant | AIRE transcriptional activation functional score
P466V | 1.06 ± 0.25
P466C | 1.89 ± 0.097
A121C | 1.3 ± 0.16
D4C | 0.509 ± 0.18
A540K | 0.195 ± 0.23
L63E | -1.39 ± 0.13
L63K | -0.721 ± 0.11
G467K | 0.889 ± 0.075
A258P | 1.23 ± 0.13
A6S | 0.223 ± 0.61
G305A | 0.453 ± 0.26
G305H | 0.264 ± 0.093
A284W | 1.16 ± 0.027
A117I | 0.777 ± 0.28
S411R | 0.871 ± 0.23
L285K | 0.713 ± 0.23
L285P | 1.17 ± 0.45
R127Q | 0.887 ± 0.18
S220C | 1.21 ± 0.032
S220T | 0.905 ± 0.032
L409N | 0.459 ± 0.12
T391Y | 1.45 ± 0.44
G240T | 1.47 ± 0.067
L308I | 0.905 ± 0.34

Variant | AIRE transcriptional activation functional score
L406F | 0.76 ± 0.32
R113K | 1.18 ± 0.31
Y85G | -1.95 ± 0.17
C302S | 0.665 ± 0.21
P381S | 0.87 ± 0.25
L516F | 1.48 ± 0.15
L516P | 0.365 ± 0.53
C299G | 0.55 ± 0.22
Q290A | 0.939 ± 0.38
Q290W | 1.1 ± 0.043
E298D | 0.987 ± 0.4
H415Y | 1.42 ± 0.36
A142W | 1.28 ± 0.14
Q425S | 1.06 ± 0.28
K52E | 0.994 ± 0.58
C310W | 0.433 ± 0.076
C310G | 0.824 ± 0.27
Q157L | 1.26 ± 0.39
Q157T | 0.825 ± 0.5
A352H | 0.902 ± 0.077
A352S | 1 ± 0.21
W335I | 1.02 ± 0.12
T46K | -3.42 ± 0.23
T46L | -0.561 ± 0.72

Variant | AIRE transcriptional activation functional score
Q275F | 1.11 ± 0.12
R110Y | 1.61 ± 0.24
R110C | 0.426 ± 0.55
R110G | 1.34 ± 0.43
P460G | 0.909 ± 0.31
P460I | 1.01 ± 0.32
R378K | 1.17 ± 0.2
R378L | 0.904 ± 0.25
R378F | 1.1 ± 0.15
S168R | 1.36 ± 0.38
S168G | 0.755 ± 0.42
A170P | 0.929 ± 0.39
P280Y | 1.42 ± 0.076
L529E | -0.369 ± 0.033
S64Y | 0.513 ± 0.21
D238H | 1.34 ± 0.25
G369I | 1.18 ± 0.37
G369E | 1.68 ± 0.059
V362F | 0.981 ± 0.12
V192Y | 1.19 ± 0.039
V192I | 1.13 ± 0.36
V80S | -0.226 ± 0.18
S324W | 1.45 ± 0.04
S324T | 0.785 ± 0.14

Variant | AIRE transcriptional activation functional score
S324A | 1.37 ± 0.25
V206S | 0.691 ± 0.27
Q172I | 2.08 ± 0.26
R15H | -0.146 ± 0.19
R15P | -0.373 ± 1
S99L | 0.541 ± 0.5
R433S | 0.734 ± 0.31
A160E | -0.0286 ± 0.97
N295F | 0.892 ± 0.34
A482E | 1.28 ± 0.092
S412H | 1.26 ± 0.24
A489V | 0.959 ± 0.15
A138M | 2.84 ± 0.08
C322Y | 0.843 ± 0.064
T480K | 0.954 ± 0.12
R351W | 0.833 ± 0.039
L28A | -0.115 ± 0.52
R316S | 1.19 ± 0.22
A261E | 1.11 ± 0.088
P282K | 1.2 ± 0.063
F82A | -0.904 ± 0.4
V20A | -0.889 ± 0.64
S250L | 1.02 ± 0.34
R494L | 0.489 ± 0.26

Variant | AIRE transcriptional activation functional score
R174N | -0.393 ± 0.74
R174H | 0.805 ± 0.43
G431L | 0.794 ± 0.35
P286D | 0.448 ± 0.17
S156L | 1.55 ± 0.51
G219R | 0.858 ± 0.27
A141G | 1.28 ± 0.34
A141Y | 1.66 ± 0.41
F215H | 0.814 ± 0.06
K131N | 0.0453 ± 0.36
K131R | -0.372 ± 0.3
A193K | 0.858 ± 0.056
S332G | 1.09 ± 0.12
S332Q | 0.542 ± 0.11
C475P | -0.156 ± 0.23
C475R | -0.148 ± 0.29
C475S | 0.0047 ± 0.16
R203V | 1.57 ± 0.24
R203N | 0.0951 ± 0.061
P254C | 1.24 ± 0.51
W78P | 0.554 ± 0.3
E40D | 0.418 ± 0.94
E40R | -0.956 ± 0.6
P360G | 1.16 ± 0.16

Variant | AIRE transcriptional activation functional score
R247C | 1.05 ± 0.71
K259H | 0.439 ± 0.14
K259G | -0.585 ± 0.16
G260M | 2.15 ± 0.087
G260T | 1.26 ± 0.17
G260V | 1.3 ± 0.18
E423Q | 0.981 ± 0.48
E423S | 1.27 ± 0.33
P368L | 1.01 ± 0.23
E375A | 1.18 ± 0.045
Q182R | 1.3 ± 0.36
Q182D | 0.345 ± 0.72
L122Y | 1.45 ± 0.31
P365A | 1.05 ± 0.15
L520E | 0.103 ± 0.036
G408H | 1.31 ± 0.18
F77G | -0.0629 ± 0.48
S464L | 1.06 ± 0.28
S464K | 1.18 ± 0.19
D105H | 0.701 ± 0.8
L146M | 0.496 ± 0.058
S135F | 1.13 ± 0.4
D526A | 0.225 ± 0.1
